Where a chain is given by its changes, count along the chain named. One block for each binder: values may come before it.
Experiments:
human ASGR1 = target: T1, human ASGR1 (human, UniProt P07306 62-291, limits assumed); experiment: kinetic binding to human ASGR1, IgG1 format; method and unit inferred
T1 construct: also called asialoglycoprotein receptor 1; hASGR1
T1 sequence (looked up): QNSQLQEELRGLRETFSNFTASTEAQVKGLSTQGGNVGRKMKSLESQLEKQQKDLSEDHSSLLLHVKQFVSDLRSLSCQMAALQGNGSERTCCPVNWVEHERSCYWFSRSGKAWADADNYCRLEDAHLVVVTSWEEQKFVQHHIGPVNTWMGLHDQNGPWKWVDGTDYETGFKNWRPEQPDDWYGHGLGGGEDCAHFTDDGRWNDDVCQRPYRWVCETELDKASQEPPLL

[1] = target: T2, HuASGR1-CBD_P07306_154-291 (human); experiment: size-exclusion chromatography of the mixed proteins (1.1:1 molar ratio)
T2 construct: also called human ASGR1-CBD
T2 chain: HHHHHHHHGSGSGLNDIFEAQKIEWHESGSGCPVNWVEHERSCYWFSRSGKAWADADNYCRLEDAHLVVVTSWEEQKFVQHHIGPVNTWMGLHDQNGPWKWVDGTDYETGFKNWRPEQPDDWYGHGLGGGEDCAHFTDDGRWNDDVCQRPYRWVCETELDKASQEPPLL
Description: Purified […] and 8M24 Fab were mixed at 1.1:1 molar ratio (little excess of the HuASGR1-CBD), and incubated with carboxy-peptidase A and B at a w/w ratio of 100:1 for over-night at 4° C. Complex formation was confirmed by observation of a single-major peak on SuperdexS200 Increase (10/300 GL) column pre-equilibrated in HBS. Fractions containing complexes were further checked by SDS-PAGE and concentrated to ˜20 mg/mL for crystallization screens. […] 96-well plate crystal screening experiments were periodically monitored manually via a DiscoveryV20 stereomicroscope (Zeiss USA), and crystals were frozen for data collection by plunging into liquid nitrogen in the presence of various cryo-protectants (typically 15 to 30% v/v of glycerol or ethyleneglycol). […] Structure of HuASGR1-CBD:8M24 complex was determined by molecular replacement method using Phaser [Phaser crystallographic software. McCoy A J, Grosse-Kunstleve R W, Adams P D, Winn M D, Storoni L C, and Read R J. (2007) J Appl Crystallogr 40, 658-674] with poly-alanine model of published structure of ASGR1-CBD [PDB code: SJPV; Efficient Liver Targeting by Polyvalent Display of a Compact Ligand for the Asialoglycoprotein Receptor. […]

- Kd (human ASGR1): 0.00573 nM
B1: 8M24 humanized L1H1 (antibody, V domains shown)
VH: EVQLVQSGAEVKKPGSSVKVSCKASGYTFTNYGINWVRQAPGQGLEWMGEIFPRSDNTFYAQKFQGRVTITADKSTSTAYMELSSLRSEDTAVYYCARKGRDYGTSHYFDYWGQGTTVTVSS
VL: DIQMTQSPSSLSASVGDRVTITCRISENIYSNLAWYQQKPGKAPKLLIYAAINLADGVPSRFSGSGSGTDFTLTISSLQPEDFATYYCQHFWGTPFTFGQGTKLEIK
notes: also called 8M24 humanized 1

- binding result [1]: binds
B2: 8M24 Fab (L1H1 version) (Fab, V domains shown)
VH: B1 VH
VL: DIQMTQSPSSLSASVGDRVTITCRISENIYSNLAWYQQKPGKAPKLLIYAAINLADGVPSRFSGSGSGTDFTLTISSLQPEDFATYYCQHFWGTPFTFGQGTKLEIKR
notes: Heavy chain entry includes a C-terminal hexa-histidine tag; also called 8M24L1 Light-chain + 8M24H1 Heavy-chain; SZP19057+19056

- Kd (human ASGR1): 0.11 nM
B3: 8M24 humanized L2H2 (antibody, V domains shown)
VH: B1 VH with M48I, V68A, I70L, V118L
VL: B1 VL with I48V, A84G
notes: also called 8M24 humanized 2
